Consider 1 molecule from publication PMC4713133 (Molecular Biology of the Cell, 2016).

Experiment [1] concerns the target Sec8-Myc (rat, UniProt Q62824 1-975). Put plainly: pull-down.
Experiment [2] has as its target Sec5-Myc (rat, UniProt O54921 1-924). Put plainly: pull-down.

Chain of Sec8-Myc (Q62824 whole entry): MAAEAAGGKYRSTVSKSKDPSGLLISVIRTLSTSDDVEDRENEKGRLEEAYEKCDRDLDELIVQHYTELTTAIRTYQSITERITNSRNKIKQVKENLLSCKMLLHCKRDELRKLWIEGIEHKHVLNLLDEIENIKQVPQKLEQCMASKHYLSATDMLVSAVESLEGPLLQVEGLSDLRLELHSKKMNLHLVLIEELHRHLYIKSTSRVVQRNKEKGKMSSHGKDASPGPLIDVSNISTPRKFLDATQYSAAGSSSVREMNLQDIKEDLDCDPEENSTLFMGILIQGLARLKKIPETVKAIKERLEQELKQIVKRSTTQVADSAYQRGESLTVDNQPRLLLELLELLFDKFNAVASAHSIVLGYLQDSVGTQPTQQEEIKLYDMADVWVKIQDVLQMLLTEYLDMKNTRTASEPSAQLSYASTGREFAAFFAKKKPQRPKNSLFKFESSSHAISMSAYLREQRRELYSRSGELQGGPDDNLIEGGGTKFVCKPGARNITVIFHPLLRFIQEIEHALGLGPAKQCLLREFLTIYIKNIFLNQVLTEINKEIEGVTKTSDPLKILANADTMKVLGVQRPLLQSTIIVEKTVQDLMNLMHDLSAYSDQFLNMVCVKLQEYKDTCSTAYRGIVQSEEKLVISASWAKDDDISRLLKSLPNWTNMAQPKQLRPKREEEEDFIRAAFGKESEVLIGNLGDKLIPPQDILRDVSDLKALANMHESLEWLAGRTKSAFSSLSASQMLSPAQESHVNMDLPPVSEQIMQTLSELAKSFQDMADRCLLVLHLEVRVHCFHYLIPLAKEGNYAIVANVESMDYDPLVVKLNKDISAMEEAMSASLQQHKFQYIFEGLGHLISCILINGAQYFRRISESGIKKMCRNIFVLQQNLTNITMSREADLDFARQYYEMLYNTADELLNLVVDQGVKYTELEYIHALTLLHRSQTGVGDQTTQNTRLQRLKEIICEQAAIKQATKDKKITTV
Chain of Sec5-Myc (O54921 whole entry): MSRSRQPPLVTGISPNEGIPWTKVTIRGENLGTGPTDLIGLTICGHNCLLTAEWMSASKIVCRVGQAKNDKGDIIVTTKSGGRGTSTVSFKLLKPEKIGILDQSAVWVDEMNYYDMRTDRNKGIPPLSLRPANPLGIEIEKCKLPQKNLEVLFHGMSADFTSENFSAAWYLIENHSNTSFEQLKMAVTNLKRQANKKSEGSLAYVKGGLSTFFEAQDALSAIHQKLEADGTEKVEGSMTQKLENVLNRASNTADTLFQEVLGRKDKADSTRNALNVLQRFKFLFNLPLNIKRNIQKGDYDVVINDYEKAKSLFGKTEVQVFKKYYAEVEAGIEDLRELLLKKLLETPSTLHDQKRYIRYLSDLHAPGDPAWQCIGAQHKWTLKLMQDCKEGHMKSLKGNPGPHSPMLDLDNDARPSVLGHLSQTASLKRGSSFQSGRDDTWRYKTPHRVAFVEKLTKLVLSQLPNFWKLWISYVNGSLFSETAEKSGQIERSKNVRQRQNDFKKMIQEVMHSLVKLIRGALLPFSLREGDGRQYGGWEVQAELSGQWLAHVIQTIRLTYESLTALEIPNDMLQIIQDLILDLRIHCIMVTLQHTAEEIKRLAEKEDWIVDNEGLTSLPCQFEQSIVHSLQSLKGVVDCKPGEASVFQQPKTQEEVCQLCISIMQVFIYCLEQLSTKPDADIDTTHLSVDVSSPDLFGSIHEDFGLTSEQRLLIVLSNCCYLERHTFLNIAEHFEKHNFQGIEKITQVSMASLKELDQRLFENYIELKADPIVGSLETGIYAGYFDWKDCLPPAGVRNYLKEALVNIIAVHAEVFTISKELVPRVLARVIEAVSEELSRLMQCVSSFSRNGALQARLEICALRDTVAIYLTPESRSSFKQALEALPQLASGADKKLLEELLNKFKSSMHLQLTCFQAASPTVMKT

B1: Arl13b-GST (natural protein)
chain: not shown
Take B1: the binding result in experiment [1] and in experiment [2] was “binds” throughout.
